Laboratory results published in the supplement of paper PMC6379048.

Legend:
Experiment in all cases: Kd (EC50 corrected by depletion factor)
CDKN2AIP = molecular target: T1, CDKN2AIP (UniProt Q9NXV6)
T1 sequence: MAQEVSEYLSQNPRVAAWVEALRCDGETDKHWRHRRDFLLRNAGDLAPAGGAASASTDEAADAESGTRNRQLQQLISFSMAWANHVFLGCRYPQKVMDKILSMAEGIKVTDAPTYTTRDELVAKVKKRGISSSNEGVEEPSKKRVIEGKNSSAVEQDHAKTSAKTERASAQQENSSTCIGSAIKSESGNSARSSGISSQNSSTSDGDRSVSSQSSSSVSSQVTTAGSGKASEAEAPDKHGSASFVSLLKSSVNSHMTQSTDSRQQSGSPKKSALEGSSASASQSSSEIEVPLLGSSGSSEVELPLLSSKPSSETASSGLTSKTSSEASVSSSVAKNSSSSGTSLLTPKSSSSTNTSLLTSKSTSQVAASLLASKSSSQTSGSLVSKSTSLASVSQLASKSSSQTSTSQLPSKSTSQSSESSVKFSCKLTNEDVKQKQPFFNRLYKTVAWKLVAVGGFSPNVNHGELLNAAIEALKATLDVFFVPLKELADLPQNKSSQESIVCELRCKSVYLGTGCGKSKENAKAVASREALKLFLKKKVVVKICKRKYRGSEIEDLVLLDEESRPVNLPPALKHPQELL
Outline: (§1)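 Over three biological replicates and two independent experiments, proteins captured on NHS-Sepharose beads carrying 5′-amino-C6 RNA oligos were quantified by label-free LC-MS/MS and normalised to the control. Capture lasted 30 min at 4°C and followed a 1 h pre-incubation at 4°C of HEK293-FT lysate (2.5 mg protein/well) with the same oligos in free form (0 nM to 30 μM). EC50 was taken from a four-parameter log-logistic fit, and Kd was EC50 corrected by a protein-dependent depletion factor.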

HNRNPF = molecular target: T2, HNRNPF (UniProt P52597)
T2 sequence: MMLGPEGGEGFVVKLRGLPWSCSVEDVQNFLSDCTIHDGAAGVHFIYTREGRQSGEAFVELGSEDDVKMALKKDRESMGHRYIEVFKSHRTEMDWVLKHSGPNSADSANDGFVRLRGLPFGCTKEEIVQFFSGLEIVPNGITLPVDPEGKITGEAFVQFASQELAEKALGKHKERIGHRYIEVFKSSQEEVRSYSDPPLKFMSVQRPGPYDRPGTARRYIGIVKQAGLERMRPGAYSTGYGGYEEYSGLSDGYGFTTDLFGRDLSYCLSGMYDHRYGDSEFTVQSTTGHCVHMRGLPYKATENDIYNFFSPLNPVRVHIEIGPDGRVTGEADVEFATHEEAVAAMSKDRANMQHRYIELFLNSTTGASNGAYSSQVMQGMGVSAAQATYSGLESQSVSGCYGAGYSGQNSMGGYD
Outline: as §1

MRPL37 = MRPL37 (UniProt Q9BZE1)
Outline: as §1

HNRNPU = HNRNPU (UniProt Q00839)
Outline: as §1

DHX30 = molecular target: T3, DHX30 (UniProt Q7L2E3)
T3 sequence: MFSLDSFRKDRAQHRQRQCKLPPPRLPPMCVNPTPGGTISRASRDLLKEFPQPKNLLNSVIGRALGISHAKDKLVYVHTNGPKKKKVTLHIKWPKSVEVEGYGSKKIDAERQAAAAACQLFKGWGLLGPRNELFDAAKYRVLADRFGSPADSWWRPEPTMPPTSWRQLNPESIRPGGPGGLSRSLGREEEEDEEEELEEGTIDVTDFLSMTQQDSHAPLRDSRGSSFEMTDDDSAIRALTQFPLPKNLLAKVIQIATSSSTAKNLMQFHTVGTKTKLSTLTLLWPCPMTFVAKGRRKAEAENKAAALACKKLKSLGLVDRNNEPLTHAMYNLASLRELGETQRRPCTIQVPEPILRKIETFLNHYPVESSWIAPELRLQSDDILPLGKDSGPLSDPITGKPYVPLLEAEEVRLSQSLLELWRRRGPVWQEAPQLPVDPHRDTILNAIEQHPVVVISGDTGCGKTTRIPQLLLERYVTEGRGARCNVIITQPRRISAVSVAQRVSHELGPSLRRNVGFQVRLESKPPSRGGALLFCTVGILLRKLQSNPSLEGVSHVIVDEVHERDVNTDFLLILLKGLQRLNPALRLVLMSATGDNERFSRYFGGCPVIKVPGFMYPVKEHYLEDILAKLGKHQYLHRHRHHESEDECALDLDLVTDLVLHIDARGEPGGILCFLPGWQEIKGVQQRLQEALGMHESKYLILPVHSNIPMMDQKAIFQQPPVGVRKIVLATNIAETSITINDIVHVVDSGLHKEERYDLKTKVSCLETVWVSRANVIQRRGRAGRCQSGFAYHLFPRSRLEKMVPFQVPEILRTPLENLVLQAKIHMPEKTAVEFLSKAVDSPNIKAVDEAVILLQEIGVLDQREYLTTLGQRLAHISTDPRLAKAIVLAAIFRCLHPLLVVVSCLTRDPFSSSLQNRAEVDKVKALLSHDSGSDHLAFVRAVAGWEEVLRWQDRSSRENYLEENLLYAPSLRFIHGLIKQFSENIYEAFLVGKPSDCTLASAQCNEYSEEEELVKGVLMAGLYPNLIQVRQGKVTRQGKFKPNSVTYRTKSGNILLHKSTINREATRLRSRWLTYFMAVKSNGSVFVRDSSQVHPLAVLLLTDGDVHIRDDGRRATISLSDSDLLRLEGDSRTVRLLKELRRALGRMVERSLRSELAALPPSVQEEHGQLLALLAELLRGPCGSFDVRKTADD
Outline: as §1

Chain of HNRNPU (Q00839 whole entry): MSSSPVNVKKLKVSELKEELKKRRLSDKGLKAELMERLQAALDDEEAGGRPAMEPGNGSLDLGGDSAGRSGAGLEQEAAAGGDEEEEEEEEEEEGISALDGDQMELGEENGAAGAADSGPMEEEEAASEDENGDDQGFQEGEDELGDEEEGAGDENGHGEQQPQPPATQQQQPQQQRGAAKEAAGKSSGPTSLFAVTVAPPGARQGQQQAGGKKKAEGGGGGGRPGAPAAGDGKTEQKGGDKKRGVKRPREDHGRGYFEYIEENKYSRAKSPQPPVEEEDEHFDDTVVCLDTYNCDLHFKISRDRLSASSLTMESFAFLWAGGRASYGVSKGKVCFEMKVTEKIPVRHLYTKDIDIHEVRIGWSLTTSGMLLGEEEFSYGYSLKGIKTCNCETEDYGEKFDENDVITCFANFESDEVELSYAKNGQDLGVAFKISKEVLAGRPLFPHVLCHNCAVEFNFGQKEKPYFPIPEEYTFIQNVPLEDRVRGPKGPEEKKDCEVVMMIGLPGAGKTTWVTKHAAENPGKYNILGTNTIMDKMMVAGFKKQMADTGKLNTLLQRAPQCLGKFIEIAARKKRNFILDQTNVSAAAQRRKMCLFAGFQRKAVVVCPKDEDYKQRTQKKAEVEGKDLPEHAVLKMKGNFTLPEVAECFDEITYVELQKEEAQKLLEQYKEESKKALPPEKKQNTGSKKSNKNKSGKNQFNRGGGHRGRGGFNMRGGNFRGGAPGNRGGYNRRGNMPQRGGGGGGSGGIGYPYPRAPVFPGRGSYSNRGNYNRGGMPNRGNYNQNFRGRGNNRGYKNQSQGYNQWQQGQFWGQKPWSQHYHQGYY

Sequence: UAUUUAU
- Kd (CDKN2AIP): 0.368 µM

Sequence: AAUAAA
- Kd (HNRNPF): 6.29 µM

Sequence: CUGUCCU
- Kd (MRPL37): 0.0761 µM
- Kd (HNRNPU): 0.0901 µM
- Kd (DHX30): 0.0587 µM
